Measured values from patent US20210238276A1 (INTEGRAL MOLECULAR, published 2021).
Numbering of substitutions follows the chain as printed. Blank lines part the entries; values can stand above or below the molecule they belong to.

Columns and labels:
hsGLUT4 E345Q = target: T1, hsGLUT4 E345Q (human, UniProt P14672 1-509); test: flow cytometry, mutant in HEK-293T
T1 construct: also called inward-open lock mutant
T1 sequence: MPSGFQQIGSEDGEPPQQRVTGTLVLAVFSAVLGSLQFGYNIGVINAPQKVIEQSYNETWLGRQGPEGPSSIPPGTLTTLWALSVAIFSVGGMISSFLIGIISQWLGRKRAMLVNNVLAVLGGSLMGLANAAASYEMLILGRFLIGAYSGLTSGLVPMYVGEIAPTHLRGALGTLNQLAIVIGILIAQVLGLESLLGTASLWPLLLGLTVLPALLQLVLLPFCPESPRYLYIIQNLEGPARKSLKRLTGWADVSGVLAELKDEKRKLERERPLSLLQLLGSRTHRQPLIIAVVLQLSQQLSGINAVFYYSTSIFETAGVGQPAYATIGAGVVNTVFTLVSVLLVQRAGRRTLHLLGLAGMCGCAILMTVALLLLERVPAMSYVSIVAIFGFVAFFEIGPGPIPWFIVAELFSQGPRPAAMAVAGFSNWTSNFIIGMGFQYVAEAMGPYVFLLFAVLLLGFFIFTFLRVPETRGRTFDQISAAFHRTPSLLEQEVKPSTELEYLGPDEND

hsGLUT4 Y309I = target: T2, hsGLUT4 Y309I (human, UniProt P14672 1-509); test: flow cytometry, mutant in HEK-293T
T2 construct: The running text prints 'Y3091'; also called Y3091 (as printed in the running text); outward-open lock mutant
T2 sequence: T1 sequence with Y309I, Q345E

hsGLUT4 F314A = target: T3, hsGLUT4 F314A (human, UniProt P14672 1-509); test: flow cytometry, alanine-scan library in HEK-293T
T3 sequence: T1 sequence with F314A, Q345E
Outline: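 HEK-293T cells expressing individual GLUT4 alanine mutants were stained 48 h post-transfection with anti-GLUT4 scFv MAbs (2 μg/ml), then biotinylated secondary and streptavidin-PerCP, and read by high-throughput flow cytometry. Where used, cytochalasin B (10 uM final) was given for 30 min before and during primary antibody staining.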

human GLUT3 (hsGLUT3) = target: T4, human GLUT3 (hsGLUT3) (human, UniProt P11169 1-496); test: flow cytometry, transfected HEK-293T
T4 construct: whole, on cells
T4 sequence (looked up): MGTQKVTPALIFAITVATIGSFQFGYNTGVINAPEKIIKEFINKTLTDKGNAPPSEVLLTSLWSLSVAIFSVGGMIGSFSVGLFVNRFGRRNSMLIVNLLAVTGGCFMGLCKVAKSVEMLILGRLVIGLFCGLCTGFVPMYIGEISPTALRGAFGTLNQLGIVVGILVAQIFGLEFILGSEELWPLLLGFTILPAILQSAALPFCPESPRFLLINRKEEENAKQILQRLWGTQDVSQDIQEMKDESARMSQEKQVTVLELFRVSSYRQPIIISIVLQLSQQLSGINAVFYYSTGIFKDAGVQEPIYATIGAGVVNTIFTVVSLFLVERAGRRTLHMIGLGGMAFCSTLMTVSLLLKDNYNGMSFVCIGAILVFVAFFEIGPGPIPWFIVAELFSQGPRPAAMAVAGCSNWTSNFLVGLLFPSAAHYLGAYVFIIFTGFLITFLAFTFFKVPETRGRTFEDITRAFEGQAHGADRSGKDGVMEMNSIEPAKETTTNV
Protocol: HEK-293T cells were transfected by CaPO₄ with plasmids in 6-well culture plates (Falcon) at 750,000 cells/well. At 48 hours post transfection, cells were stained with anti-V5 and anti-GLUT4 MAbs (purified scFv, 2 μg/ml) followed by biotinylated goat anti-mouse or human antibody (1:500) and streptavidin-PerCP (1:500). Fluorescence was detected using an Intellicyt high-throughput flow cytometer (HTFC; Intellicyt, Albuquerque, N. Mex.). For cell permeabilization, cells were treated with saponin at 0.1% in PBS for 20 minutes. To discriminate intact (live) and permeabilized (dead) cells without the use of detergent, propidium iodide (PI) was added to HEK-293T cells at 1 ug/ml just prior to flow cytometry. Where indicated, cytochalasin B (Sigma) was used at a final concentration of 10 uM and phloretin (Sigma) was used at a final concentration of 100 uM, each added in 10% NGS for 30 minutes prior to antibody staining as well as included with the primary antibody.

Molecule: 1F8 (antibody)
% of binding to wild type GLUT4 (hsGLUT4 E345Q): 91% | % of binding to wild type GLUT4 (hsGLUT4 Y309I): 101% | % of binding to wild type GLUT4 (hsGLUT4 F314A): 91%

B1: AB108 (Fc fusion)
scFv: ALTQPSSVSANLGGTVKITCSGSSGSYGWYQQKAPGSAPVTLIYRNDKRPSDIPSRFSGSESGSTGTLTITGVQAEDEAVYFCGGYDSSAGYAAFGAGTTLTVLGQSSRSSGGGGSSGGGGSAVTLDESGGGLQTPGGALSLVCKASGFTFSSHGMGWVRQAPGKGLEWVGSISTGRYTFYAPAVKGRATISRDNGQSTLRLQLNNLRAEDTGTYYCTKCAGLNGCGGGEIDAWGHGTEVIVSS
notes: Bivalent scFv-Fc; also called MAb AB108; not shown: Fc fragment of human IgG1, cloned in frame with the scFv
% of binding to wild type GLUT4 (hsGLUT4 E345Q): 78% | % of binding to wild type GLUT4 (hsGLUT4 Y309I): 67% | % of binding to wild type GLUT4 (hsGLUT4 F314A): 92% | binding result (human GLUT3 (hsGLUT3)): no binding (tested: 2 µg/ml)

B4: AB111 (Fc fusion)
scFv: ALTQPSSVSANPGETVKITCSGSGSWYGWFQQKSPGSAPVTVIYSNDKRPSDIPSRFSGSKSGSTSTLTITGVQVEDEAVYYCGNWDIFGAGTTLTVLGQSSRSSGGGGSSGGGGSAVTLDESGGGLQTPGGALSLVCKASGFTFSSHGMGWVRQAPGKGLEWVASISTGRYTFYAPAVKGRATISRDNGQSTVRLQLNNLRAEDTATYYCTKCAGLNGCGGGEIDAWGHGTEVIVSS
notes: Bivalent scFv-Fc; also called MAb AB111; not shown: Fc fragment of human IgG1, cloned in frame with the scFv
% of binding to wild type GLUT4 (hsGLUT4 E345Q): 125% | % of binding to wild type GLUT4 (hsGLUT4 Y309I): 154% | % of binding to wild type GLUT4 (hsGLUT4 F314A): 166% | binding result (human GLUT3 (hsGLUT3)): no binding (tested: 2 µg/ml)

Continued, values first:

% of binding to wild type GLUT4 (hsGLUT4 E345Q): 16% | binding result (human GLUT3 (hsGLUT3)): no binding (tested: 2 µg/ml)
B2: AB105 (Fc fusion)
scFv: ALTQPSSVSANPGETVEITCSGDSSYYGWYQQKSPGSAPVTVIYANTNRPSDIPSRFSGSASGSTATLTITGVQAEDEAVYYCGSADSTYAGIFGAGTTLTVLGQSSRSSGGGGSSGGGGSAVTLDESGGGLQTPGGALSLICKASGFTFSSYTMNWVRQAPGKGLEWVGVISNSGRTTNYGAAVQGRATISRDNGQSTVRLQLNNLRAEDTGTYYCAKSSASASCAWWAGRSYPCSANRIDAWGHGTEVIVSS
notes: Bivalent scFv-Fc; also called MAb AB105; not shown: Fc fragment of human IgG1, cloned in frame with the scFv

% of binding to wild type GLUT4 (hsGLUT4 E345Q): 96% | % of binding to wild type GLUT4 (hsGLUT4 Y309I): 110% | % of binding to wild type GLUT4 (hsGLUT4 F314A): 91%
B3: AB101 (scFv)
scFv: ALTQPSSVSANPGETVKITCSGSSNSYGWYQQKSPGSAPVTVIYYNDKRPSDIPSRFSGSKSDSTHTLTITGVRAEDEAVYFCGSYDSTYVGIFGAGTTLTVLGQSSRSSGGGGSSGGGGSAVTLDESGGGLQTPGGTLSLVCKASGFTFSSNAMGWVRQAPGKGLEWVAGISSDGRYTKYGSAVKGRATISRDNGQSTVRLQLNNLRAEDTGTYFCAKAFGNNYRRIYAGQIDAWGHGTEVIVSS
notes: Chicken-derived clone used as a control; the four lead clones were tested as scFv-human IgG1 Fc; also called MAb AB101
